Ends that are not written are not given here.
Key:
[1] = biological target: human G protein-coupled receptor protein hOT7T022 (human, UniProt Q9GZQ6 1-430); experiment: cell-based or functional assay
[2] = biological target: rat G protein-coupled receptor protein rOT7T022L (rat, UniProt Q9EP86 1-432); experiment: cell-based or functional assay
Chain of rat G protein-coupled receptor protein rOT7T022L (Q9EP86 whole entry): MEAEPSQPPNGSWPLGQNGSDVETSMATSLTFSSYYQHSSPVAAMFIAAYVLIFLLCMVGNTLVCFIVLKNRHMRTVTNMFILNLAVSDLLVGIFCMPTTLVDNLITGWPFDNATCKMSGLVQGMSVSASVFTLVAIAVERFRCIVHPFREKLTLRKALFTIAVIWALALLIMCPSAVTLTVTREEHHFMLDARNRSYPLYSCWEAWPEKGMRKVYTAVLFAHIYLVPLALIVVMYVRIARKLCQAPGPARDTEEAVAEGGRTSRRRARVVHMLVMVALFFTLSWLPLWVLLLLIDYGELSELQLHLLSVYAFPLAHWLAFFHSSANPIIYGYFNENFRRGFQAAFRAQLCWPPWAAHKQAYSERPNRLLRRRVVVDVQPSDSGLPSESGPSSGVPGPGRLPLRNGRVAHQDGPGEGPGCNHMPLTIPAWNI

Chain of human G protein-coupled receptor protein hOT7T022 (Q9GZQ6 whole entry): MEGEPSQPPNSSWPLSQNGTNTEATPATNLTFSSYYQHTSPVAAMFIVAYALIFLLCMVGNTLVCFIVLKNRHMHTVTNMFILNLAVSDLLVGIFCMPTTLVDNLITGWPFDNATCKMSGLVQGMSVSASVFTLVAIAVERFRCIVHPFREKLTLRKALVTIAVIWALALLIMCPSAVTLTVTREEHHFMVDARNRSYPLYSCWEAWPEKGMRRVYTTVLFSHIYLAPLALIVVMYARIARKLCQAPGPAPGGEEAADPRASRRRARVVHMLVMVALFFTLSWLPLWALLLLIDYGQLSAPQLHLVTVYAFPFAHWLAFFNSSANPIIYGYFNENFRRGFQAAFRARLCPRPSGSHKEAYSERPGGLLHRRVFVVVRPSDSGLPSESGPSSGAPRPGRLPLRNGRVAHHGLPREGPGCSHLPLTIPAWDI

ED50, inhibition of the increased cAMP level in the cells by the forskolin treatment [1] [nM]	IC50 of cAMP production suppression (forskolin-stimulated cells, cAMP EIA) [2] [nM]	Binder
4.5	0.5	MPHSFANLPLRF-NH2 [peptide MPHSFANLPLRFamide (SEQ ID NO: 39)]
30		SVTFQELKDWGAKKDIKMSPAPANKVPHSAANLPLRF (ends and bridges not checked) [rRFRP-1-37 (peptide having the 58 (Ser) to 94 (Phe) amino acid sequence in SEQ ID NO: 50)]
21		SLNFEELKDWGPKNVIKMSTPAVNKMPHSFANLPLRF-NH2 [hRFRP-1-37 (peptide having the 56 (Ser) to 92 (Phe) amino acid sequence in SEQ ID NO: 1)]
≥ 1000		PQRF-NH2 [PQRFamide (peptide shown by Pro-Gln-Arg-Phe-NH2)]

Source: patent US20040132073A1 (Takeda / Millennium, published 2004)
